Results reported in patent publication US20080221057A1, “SECRETED PROTEIN CCDC80 REGULATES ADIPOCYTE DIFFERENTIATION” (Wyeth, priority 2007, published 2008).

Tests used:
Format in all cases: cell-based, mouse
[1] = test system: Ccdc80 mRNA; test: Ccdc80 mRNA expression in growth-arrested 3T3-L1 cells treated with adipogenic inducers, real-time PCR; settings: growth-arrested 3T3-L1 cells treated with one or more adipogenic inducers for 96 hr
Method: RNA from undifferentiated and differentiated 3T3-L1 adipocytes, tissues from normal, 8- to 12-week-old male C57BL/6J mice, as well as tissues from 10-week-old male ob/ob and age-matched wild-type control mice, was obtained as described (Lake et al., J. Lipid Res 46:2477-2487, 2005). For thiazolidinedione (TZD) treatment, 10-week-old male ob/ob mice were gavaged once per day with 15 mg/kg rosiglitazone or vehicle for 21 days. Primary adipocytes and stromal vascular fraction were prepared from the epididymal adipose tissue of 8- to 12-week-old male C57BL/6J mice as described (Lake et al., J. Lipid Res 46:2477-2487, 2005). Total RNA was extracted using Trizol (Invitrogen) and purified using the RNeasy kit (Qiagen). RNA from human tissues was obtained from Clontech (Mountain View, Calif.). […] Biol. Chem. 281:27167-27177, 2006). Gene expression was also measured by real-time PCR. (n=3-6 mice per group)*p<0.05. Taqman real-time quantitative PCR was performed on a 7900HT fast real-time PCR system (Applied Biosystems) according to the manufacturer's instructions using 18S as an endogenous control as described before (Lake et al., J. Lipid Res 46:2477-2487, 2005). Pre-designed gene-specific primers and probes were obtained from Applied Biosystems. […] Neutral lipid accumulation in formalin-fixed adipocytes was determined by oil red O staining according to methods well known in the art.

[2] = test system: 3T3-L1 cells; test: 3T3-L1 adipocyte differentiation, lipid accumulation by oil red O staining; settings: data not shown
Method: 3T3-L1 cells were maintained in DMEM containing 20% calf serum in an atmosphere of 10% CO2 at 37° C. Two days post-confluence, cells were induced to differentiate into adipocyte using DMEM containing 10% FBS supplemented with 500 μM 3-isobutyl-1-methylxanthine, 1 μM dexamethasone and 1.7 μM insulin for 4 days, followed by DMEM containing 10% FBS and 0.85 μM insulin for 2 days, then DMEM containing only 10% FBS for an additional 2-4 days. Neutral lipid accumulation in formalin-fixed adipocytes was determined by oil red O staining according to methods well known in the art.

[3] = test system: 3T3-L1 cells; test: mRNA expression of genes involved in adipogenesis, metabolism and signaling in 3T3-L1 cells (microarray, real-time PCR)
Method: (§1) RNA from undifferentiated and differentiated 3T3-L1 adipocytes, tissues from normal, 8- to 12-week-old male C57BL/6J mice, as well as tissues from 10-week-old male ob/ob and age-matched wild-type control mice, was obtained as described (Lake et al., J. Lipid Res 46:2477-2487, 2005). For thiazolidinedione (TZD) treatment, 10-week-old male ob/ob mice were gavaged once per day with 15 mg/kg rosiglitazone or vehicle for 21 days. Primary adipocytes and stromal vascular fraction were prepared from the epididymal adipose tissue of 8- to 12-week-old male C57BL/6J mice as described (Lake et al., J. Lipid Res 46:2477-2487, 2005). Total RNA was extracted using Trizol (Invitrogen) and purified using the RNeasy kit (Qiagen). RNA from human tissues was obtained from Clontech (Mountain View, Calif.). Gene expression profiling was performed using the Mouse Genome 430 2.0 array (Affymetrix) as previously described (Berasi et al., J. Biol. Chem. 281:27167-27177, 2006). Gene expression was also measured by real-time PCR. (n=3-6 mice per group)*p<0.05. Taqman real-time quantitative PCR was performed on a 7900HT fast real-time PCR system (Applied Biosystems) according to the manufacturer's instructions using 18S as an endogenous control as described before (Lake et al., J. Lipid Res 46:2477-2487, 2005). Pre-designed gene-specific primers and probes were obtained from Applied Biosystems. Data shown in FIGS. 1A-E and 1G, FIG. 3 B-D, FIG. 4D, FIG. 5A, C, D, FIG. 6, and FIG. 7A are obtained by real-time PCR; data shown in FIG. 1F, and FIG. 4C are derived from microarray analysis.

[4] = test system: Ccdc80; test: Secretion of Ccdc80 from 3T3-L1 cells, western blot of conditioned medium; settings: growth-arrested and terminally differentiated 3T3-L1, vs non-silencing shRNA
Method: The Ccdc80-FLAG containing expression vector (pSMED2-Ccdc80-FLAG), as well as a control vector (pSMED2) were transfected into HEK293 T cells. In particular, HEK293T were seeded at a density of 2×10^6 cells in 10-cm Petri dishes. Cells were transfected with pSmed2 or pSmed2-Ccdc80-FLAG using Fugene6 (Roche). Two days after transfection, cells were placed in serum-free DMEM and medium was collected 24 hr later. Endogenous secretion of Ccdc80 was evaluated in 3T3-L1 preadipocytes and fully differentiated adipocytes. 3T3-L1 cells were rinsed twice with PBS and incubated in serum-free DMEM for 48 hrs before medium was collected. Conditioned media were analyzed by 4-10% SDS-PAGE followed by silver staining or immunological detection with anti-FLAG M2 (293T) or anti-Ccdc80 (3T3-L1) antibodies.

[5] = test system: Ccdc80 mRNA; test: Silencing of Ccdc80 by RNA interference in stable 3T3-L1 cell lines, Ccdc80 mRNA by real-time PCR; settings: stable 3T3-L1 line, vs non-silencing shRNA
Method: RNA from undifferentiated and differentiated 3T3-L1 adipocytes, tissues from normal, 8- to 12-week-old male C57BL/6J mice, as well as tissues from 10-week-old male ob/ob and age-matched wild-type control mice, was obtained as described (Lake et al., J. Lipid Res 46:2477-2487, 2005). For thiazolidinedione (TZD) treatment, 10-week-old male ob/ob mice were gavaged once per day with 15 mg/kg rosiglitazone or vehicle for 21 days. Primary adipocytes and stromal vascular fraction were prepared from the epididymal adipose tissue of 8- to 12-week-old male C57BL/6J mice as described (Lake et al., J. Lipid Res 46:2477-2487, 2005). Total RNA was extracted using Trizol (Invitrogen) and purified using the RNeasy kit (Qiagen). RNA from human tissues was obtained from Clontech (Mountain View, Calif.). Gene expression profiling was performed using the Mouse Genome 430 2.0 array (Affymetrix) as previously described (Berasi et al., J. Biol. Chem. 281:27167-27177, 2006). Gene expression was also measured by real-time PCR. (n=3-6 mice per group)*p<0.05. Taqman real-time quantitative PCR was performed on a 7900HT fast real-time PCR system (Applied Biosystems) according to the manufacturer's instructions using 18S as an endogenous control as described before (Lake et al., J. Lipid Res 46:2477-2487, 2005). Pre-designed gene-specific primers and probes were obtained from Applied Biosystems. […]

[6] = test system: 3T3-L1 cells; test: Proliferation of 3T3-L1 pre-adipocytes; settings: stable retroviral expression in 3T3-L1 cells
[7] = test system: Akt and ERK; test: Insulin stimulation and immunoblot analysis of Akt and ERK phosphorylation in 3T3-L1 cells; settings: Ccdc80-KD cells
Method: Differentiated 3T3-L1 adipocytes were deprived of serum for 2 hr before stimulation with 10 nM insulin for 10 min. Cells were rinsed twice in ice-cold PBS and lysed as previously described (Tremblay and Marette, J. Biol. Chem. 276:38052-38060, 2001). Equal amounts of proteins were separated on 4-12% SDS-PAGE and transferred to nitrocellulose membranes. Phosphorylation of Akt (Ser473) and ERK-½ (Thr202/Tyr204) was determined using phospho-specific antibodies (Cell Signaling Technologies).

[8] = test system: Wnt/β-catenin signaling pathway; test: Wnt/β-catenin pathway gene expression in 3T3-L1 cells, real-time PCR low-density array
Method: as §1

[9] = test system: TCF-mediated transcriptional activity; test: TOPFLASH luciferase reporter assay in 3T3-L1 cells; settings: vs non-silencing shRNA
Method: HepG2 cells were seeded at a density of 8×10^4 cells per well in 24-well plates and grown for 24 hr in antibiotic-free DMEM containing 10% FBS. Cells were transfected with 0.8 μg TOPFLASH and 0.2 μg β-galactosidase reporter plasmids using Lipofectamine 2000 (Invitrogen), rinsed with PBS 4 hr later and infected with adenovirus encoding either GFP or Ccdc80 in opti-MEM. Serum (final concentration: 10% FBS) was added to each well 2 hr after infection and cells were collected 24 hr later. 3T3-L1 cells were seeded at a density of 2.5×10^5 cells per well in 24-well plates. Cells were transfected with 1 μg TOPFLASH and 0.2 μg β-galactosidase reporter plasmids using Fugene 6 and grown in DMEM containing 20% calf serum until 2 days post-confluency. Cells were collected prior to and 24, 48 and 96 hr after induction of differentiation with insulin, 3-isobutyl-1-methylxanthine and dexamethasone as described above. Luciferase and β-galactosidase activities were measured according to manufacturer's instructions (Promega). Luciferase value was normalized to β-galactosidase activity.

[10] = Ccdc80-KD cells, end of differentiation, microarray

## CC(C)Cn1c(=O)n(C)c(=O)c2[nH]cnc21 [IBMX, 3-isobutyl-1-methylxanthine]
[1]
  Ccdc80 mRNA levels: significantly reduce

## N#CC(=C(/N)Sc1ccccc1N)/C(C#N)=C(\N)Sc1ccccc1N [U0126]
[2]; Ccdc80-KD cells, 1 or 10 μM
  reversal of inhibited adipogenesis phenotype: no reversal of phenotype
[2]; control cells, treatment during clonal expansion
  adipogenesis of control cells: inhibited adipogenesis

## insulin
[1]
  Ccdc80 mRNA levels: significantly reduce

B1: Ccdc80 shRNA: short hairpin RNA against mouse Ccdc80 (position 2015-2037), encoded by SEQ ID NO: 3, expressed from a retroviral vector (nucleic acid)
chain: UGCUGUUGACAGUGAGCGCCCUGAGAAGGAGAAGAAGAAAUAGUGAAGCCACAGAUGUAUUUCUUCUUCUCCUUCUCAGGUUGCCUACUGCCUCGGA
[3]; Ccdc80-KD cells
  expression of GLUT1: unchanged
  expression of GLUT4: decreased
[3]; [10]
  expression of C/EBPα and PPARγ: significantly decreased
  expression of KLF5 and TCF4: significantly increased
  expression of genes involved in lipid metabolism (aP2, CD36, DGAT1/2, LIPIN1, LPL and SCD1/2): impaired
[3]; Ccdc80-KD cells, real-time PCR, maintained throughout terminal differentiation
  magnitude of induction of aP2, C/EBPα and PPARγ during clonal expansion: severely attenuated
[3]; control vs knockdown cells
  expression of common mediators of the insulin signaling pathway: no obvious difference
[2]; knockdown cell line, end of the differentiation protocol
  ability to differentiate into adipocytes (oil red O staining): reduced oil red O staining
[4]
  secretion of Ccdc80 protein: markedly blunted the secretion
[5]
  reduction of the expression of Ccdc80: 40-50%
[6]
  proliferation of pre-adipocyte: increased
[7]; 10 nM insulin for 10 min
  insulin-stimulated phosphorylation of Akt and ERK1/2: unaffected
[7]; no insulin
  basal phosphorylation of ERK1/2: elevated
[8]; 3T3-L1, change from growth arrest to clonal expansion, adenovirus at MOI 2000
  repression of Cyclin D1 mRNA levels by adipogenic inducers during clonal expansion: severely compromised
[8]; Ccdc80-KD cells during differentiation
  expression of β-catenin signaling mediators (APC, β-catenin, Dvl-1, Frizzled-1, GSK3 A, LRP5/6 and Wnt10b): Only very little changes
[8]; Ccdc80-KD cells, after terminal differentiation
  TCF4 mRNA levels: increased
[8]; Ccdc80-KD cells, following clonal expansion
  expression of LEF1: down-regulation
[9]; growth arrest (T=0)
  TOPFLASH activity: similar
[9]; throughout clonal expansion (24, 48 and 96 hr after induction)
  TOPFLASH activity: significantly more elevated
